Measurements: patent US20230295259A1 (Protagonist Therapeutics, Inc., priority 2020, published 2023)
Positions of bridges follow the written chain, without caps; N, C: chain ends. Non-standard residues stand in square brackets, D forms with d. Groups on a side chain read outwards from the residue. Primed or numbered codes have the meaning given here. *: point of attachment. 2Peg11′ = —[C(O)—CH2—CH2—(OCH2CH2)12—NH]— (PEG12 unit); PEG12 = NCCOCCOCCOCCOCCOCCOCCOCCOCCOCCOCCOCCOCCC(=O)O; Dip = N[C@H](C(=O)O)C(c1ccccc1)c1ccccc1; Palmitoyl = CCCCCCCCCCCCCCCC(=O)*; β3hF = N[C@H](CC(=O)O)Cc1ccccc1; Isovaleryl = CC(C)CC(=O)*; Ahx = NCCCCCC(=O)O

T1: human ferroportin (Homo sapiens, UniProt Q9NP59)
T1 construct: expressed in transfected cells
T1 sequence (Q9NP59 1-571): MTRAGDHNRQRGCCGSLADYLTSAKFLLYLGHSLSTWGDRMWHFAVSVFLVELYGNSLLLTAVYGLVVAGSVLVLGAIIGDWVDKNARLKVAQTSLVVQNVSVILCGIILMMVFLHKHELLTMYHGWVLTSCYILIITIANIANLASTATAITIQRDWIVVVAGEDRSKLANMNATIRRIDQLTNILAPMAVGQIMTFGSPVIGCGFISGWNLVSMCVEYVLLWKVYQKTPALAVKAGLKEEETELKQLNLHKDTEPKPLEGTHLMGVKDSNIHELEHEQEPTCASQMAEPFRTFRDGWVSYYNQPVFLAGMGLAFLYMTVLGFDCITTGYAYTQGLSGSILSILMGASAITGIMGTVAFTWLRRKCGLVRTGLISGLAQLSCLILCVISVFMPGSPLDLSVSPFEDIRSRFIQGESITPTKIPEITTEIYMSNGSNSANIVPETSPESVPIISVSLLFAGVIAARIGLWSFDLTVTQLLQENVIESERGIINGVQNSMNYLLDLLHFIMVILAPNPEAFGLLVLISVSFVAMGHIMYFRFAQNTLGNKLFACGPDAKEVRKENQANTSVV

T2: human ferroportin (SLC40A1) fused in frame with GFP, stably expressed in HEK293 cells (human, UniProt Q9NP59 1-571)
T2 sequence (looked up): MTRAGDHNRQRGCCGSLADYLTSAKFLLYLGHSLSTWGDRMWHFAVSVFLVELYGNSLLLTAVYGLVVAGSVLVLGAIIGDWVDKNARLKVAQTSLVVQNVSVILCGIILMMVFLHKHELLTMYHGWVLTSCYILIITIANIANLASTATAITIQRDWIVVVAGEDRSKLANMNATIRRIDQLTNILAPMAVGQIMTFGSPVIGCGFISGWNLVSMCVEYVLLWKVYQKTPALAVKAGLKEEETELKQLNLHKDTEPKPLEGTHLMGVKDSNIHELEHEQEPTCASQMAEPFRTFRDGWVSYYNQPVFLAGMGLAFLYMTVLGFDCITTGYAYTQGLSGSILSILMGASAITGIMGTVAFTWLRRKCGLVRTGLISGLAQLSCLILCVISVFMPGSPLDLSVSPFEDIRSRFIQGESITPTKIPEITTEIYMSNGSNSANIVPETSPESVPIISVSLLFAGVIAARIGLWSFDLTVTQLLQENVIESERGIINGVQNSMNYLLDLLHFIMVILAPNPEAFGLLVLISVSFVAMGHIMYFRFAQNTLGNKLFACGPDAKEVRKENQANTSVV


tested on: LAD2 cells; experiment: not given; assay type: cell-based, human; conditions: LAD2 mast cells, β-hexosaminidase release, 30 minutes incubation; read-out: EC50: LAD2
From the text: In anaphylactoid reactions, the main mechanism involves the direct stimulation of mast cells or basophils, leading to the release of anaphylactic mediators such as histamine and β-hexosaminidase. A recent study by McNeil et al. (McNeil B D et al., 2015) reported that MrgprX2, a specific membrane receptor on human mast cells, induces anaphylactoid reactions. The LAD2 (Laboratory of Allergic Diseases 2) human mast cell line, derived from human mast cell sarcoma/leukemia (Kirshenbaum et al., 2003), is commonly employed to study anaphylactoid reactions, because its biological properties are identical to those of primary human mast cells, including the overexpression of the MrgprX2 receptor and sensitivity towards degranulating peptides (Kulka et al., 2008). The release of anaphylactic mediators such as f-hexosaminidase, is assessed by fluorometric quantification.
On the day of the assay, serial dilutions of compounds were added to LAD2 cells plated at 20000 cells/well in a 96-well plate. After incubation for 30 minutes, the amount of β-hexosaminidase released into the supernatants and in cell lysates was quantified using the fluorogenic substrate 4-methylumbelliferyl-N-acetyl-b-D-glucosaminide. Dose-response curves were generated by plotting the % of β-hexosaminidase release (y-axis) against the concentrations of peptides tested (x-axis). […]. (Table 2D).

| EC50 | Molecule |
| --- | --- |
| > 12500 nM | Isovaleric Acid-E-T-H-[Dpa]-P-[Cys]-I-[Lys(2Peg11′_Palm)]-[bhPhe]-[Lys(2Peg20K)]-R-[Cys]-NH2 [Compound 47] |

biological target: T1, human ferroportin; experiment: FPN activity assay: internalization/degradation of ferroportin-GFP in stably transfected HEK293 cells (decrease in GFP fluorescence); assay type: cell-based; conditions: Table 2A; HEK293 cells expressing human ferroportin-GFP, at least 18 hours incubation
Method: Following internalization, the ferroportin protein is degraded.
A retro inverse peptide is a peptide with a reversed sequence in all D amino acids. An example is that Hy-Glu-Thr-His-NH2 becomes Hy-DHis-DThr-DGlu-NH2. The EC50 of these reference compounds for ferroportin internalization/degradation was determined according to the FPN activity assay described above. These peptides served as control standards.
These values were determined as described herein.

| EC50 | Molecule |
| --- | --- |
| 58.2 nM | Isovaleric Acid-E-T-H-[Dpa]-P-[Cys]-I-[Lys(2Peg11′_Palm)]-[bhPhe]-[Lys(2Peg20K)]-R-[Cys]-NH2 [Compound 47] |
| 3.31 nM | Isovaleric Acid-E-T-H-[Dpa]-P-[Cys]-I-[Lys(2Peg20K)]-[bhPhe]-[Lys(2Peg11′_Palm)]-R-[Cys]-NH2 [Compound 50] |
| 103 nM | Isovaleric Acid-E-T-H-[Dpa]-P-[Cys]-I-[Lys(Ahx_PEG20K)]-[bhPhe]-R-[Cys]-NH2 [Compound 51] |

same assay, conditions: Table 2B; HEK293 cells expressing human ferroportin-GFP, at least 18 hours incubation

| EC50 | Molecule |
| --- | --- |
| 32.6 nM | Isovaleric Acid-E-T-H-[Dpa]-P—C—I-[Lys(Ahx_Palm)]-[bhPhe]-[(D)Lys(PEG20K)]-C—NH2 [Compound 312] |
| 357 nM | Isovaleric Acid-E-T-H-[Dpa]-P—C—I-[Lys(1PEG2_1PEG2_Ahx_Palm)]-[bhPhe]-[(D)Lys(PEG20K-C—NH2 [Compound 314] |
| 1080 nM | Isovaleric Acid-E-T-H-[Dpa]-P—C—I-[Lys(PEG40KB)]-[bhPhe]-[Lys(PEG12_Palm)]-R—C—NH2 [Compound 296] |

same assay, conditions: Table 2D (Illustrative Monomer Hepcidin Analogues); ferroportin-GFP HEK293 cells; read-out: IC50: FPN internalisation

| DC50 | Molecule |
| --- | --- |
| 14.3 nM | CC[C@H](C)[C@@H]1NC(=O)[C@@H](NC(=O)[C@@H]2CCCN2C(=O)[C@@H](NC(=O)[C@H](Cc2ccncc2)NC(=O)[C@@H](NC(=O)[C@H](CCC(=O)OC)NC(=O)CC(C)C)[C@@H](C)O)C(c2ccccc2)c2ccccc2)CSSC[C@@H](C(N)=O)NC(=O)[C@@H](CCCCN)NC(=O)C[C@H](Cc2ccccc2)NC(=O)[C@H](CCCCNC(=O)COCCOCCNC(=O)COCCOCCNC(=O)[C@H](CN)NC(=O)CCCCCCCCCCCCCCCCC(=O)O)NC1=O [Compound 499] |
| 37.4 nM | COC(=O)CC[C@H](NC(=O)CC(C)C)C(=O)N[C@H](C(=O)N[C@@H](Cc1cnc[nH]1)C(=O)N[C@H](C(=O)N1CCC[C@H]1C1CSSC[C@@H](C(N)=O)NC(=O)[C@@H](CCCCN)NC(=O)C[C@H](Cc2ccccc2)NC(=O)[C@H](CCCCNC(=O)COCCOCCNC(=O)COCCOCCNC(=O)[C@H](CN)NC(=O)CCCCCCCCCCCCCCCCC(=O)O)NC(=O)C2(CCCCC2)NC1=O)C(c1ccccc1)c1ccccc1)[C@@H](C)O (stereo partly shown) [Compound 512] |

biological target: T2, human ferroportin (SLC40A1) fused in …; experiment: cell-based or functional assay; conditions: not given

| FPN EC50 | Molecule |
| --- | --- |
| 58.2 nM | Isovaleryl-ETH[Dip]PCIK([2Peg11′-Palmitoyl])[β3hF]K(2Peg20K)RC-NH2 (disulfide 6-12 (inferred)) [Compound 47] |
| 103 nM | Isovaleryl-ETH[Dip]PCIK([Ahx-PEG20K])[β3hF]RC-NH2 (disulfide 6-11 (inferred)) [Compound 51] |
| 90 nM | XETHXPCIXXXCX (Isovaleric Acid-E-T-H-[Dpa]-P-[Cys]-I-[Lys(Ac)]-[bhPhe]-[(D)Lys(Ac)]-[Cys]-[(D)Glu]-NH2) [Compound 123] |
| 8.06 nM | XETHXPCIXXXC (Isovaleric Acid-E-T-H-[Dpa]-P-[Cys]-I-[Lys(2Peg11′_C18_Diacid)]-[bhPhe]-[(D)Lys]-[Cys]-NH2) [Compound 113] |
| 9.81 nM | XETHXPCIXXXC (Isovaleric Acid-E-T-H-[Dpa]-P-[Cys]-I-[Lys(1Peg2_1Peg2_Ahx_C18_Diacid)]-[bhPhe]-[(D)Lys]-[Cys]-NH2) [Compound 12] |
| 3.31 nM | Isovaleryl-ETH[Dip]PCIK(2Peg20K)[β3hF]K([PEG12-Palmitoyl])RC-NH2 (disulfide 6-12 (inferred)) [Compound 50] |
| 5 nM | XETHXPCIXXXXC (Isovaleric Acid-E-T-H-[Dpa]-P-[Cys]-I-[(D)Lys]-[Dpa]-[Lys(2Peg11′_Palm)]-[(D)Lys]-[Cys]-NH2) [Compound 2] |
| > 3000 nM | Isovaleryl-ETH[Dip]PCIK(Ac)[β3hF]KRC-NH2 (disulfide 6-12 (inferred)) [Compound 42] |
| 20 nM | Isovaleryl-ETH[Dip]PCI[dK][β3hF]K([PEG12-Palmitoyl])RC-NH2 (disulfide 6-12 (inferred)) [Compound 27] |
| > 3000 nM | Isovaleryl-ETH[Dip]PCIK(Ac)[β3hF]K(2Peg20K)RC-NH2 (disulfide 6-12 (inferred)) [Compound 46] |
